Results reported in patent US20240116985A1 (published 2024).
Starred links: 1 amine or outer side, 2 acyl side, 3 side chain; linkers in the order of their positions; H or OH if unused. Positions of bridges follow the written chain, without caps; N, C: chain ends. Non-standard residues stand in square brackets, D forms with d. Primed or numbered codes have the meaning given here. PyrS2(3) = (S)-3-amino-1-((pent-4-en-1-yloxy)carbonyl)pyrrolidine-3-carboxylic acid, stapling residue, C=CCCCOC(=O)N1CC[C@@](N[*:1])(C(=O)[*:2])C1; PyrS2″ = (S)-3-amino-1-((pent-4-en-1-yloxy)carbonyl)pyrrolidine-3-carboxylic acid (stapling residue), C=CCCCOC(=O)N1CC[C@@](N[*:1])(C(=O)[*:2])C1; B5(24) = 2-amino-2-(pent-4-en-1-yl)hept-6-enoic acid, 2,2-bis(4-pentenyl)glycine (stitching residue), C=CCCCC(CCCC=C)(N[*:1])C(=O)[*:2]; B5″ = 2,2-bis(4-pentenyl)glycine, stitching residue, C=CCCCC(CCCC=C)(N[*:1])C(=O)[*:2]; B5 = 2-amino-2-(pent-4-en-1-yl)hept-6-enoic acid, C=CCCCC(CCCC=C)(N[*:1])C(=O)[*:2]; Phe(F5) = N[C@@H](Cc1c(F)c(F)c(F)c(F)c1F)C(=O)O; Phe(3-CN) = N#Cc1cccc(C[C@H](N)C(=O)O)c1; Phe(4-CN) = N#Cc1ccc(C[C@H](N)C(=O)O)cc1; Phe(2-CN) = N#Cc1ccccc1C[C@H](N)C(=O)O; Phe(2-Cl) = N[C@@H](Cc1ccccc1Cl)C(=O)O; Bta = N[C@@H](Cc1csc2ccccc12)C(=O)O; αAllylPro = C=CC[C@@]1(C(=O)O)CCCN1; tBuAla = CC(C)(C)C[C@H](N)C(=O)O; 3Thi = N[C@@H](Cc1ccsc1)C(=O)O; Cha = N[C@@H](CC1CCCCC1)C(=O)O; S8 = C=CCCCCCC[C@](C)(N)C(=O)O; R5 = C=CCCC[C@@](C)(N)C(=O)O

T1: full-length beta-Catenin (Uniprot ID P35222) (Homo sapiens (Human), UniProt P35222 1-781)
T1 construct: The assay text says full-length; also called bCat; B-Catenin
T1 sequence: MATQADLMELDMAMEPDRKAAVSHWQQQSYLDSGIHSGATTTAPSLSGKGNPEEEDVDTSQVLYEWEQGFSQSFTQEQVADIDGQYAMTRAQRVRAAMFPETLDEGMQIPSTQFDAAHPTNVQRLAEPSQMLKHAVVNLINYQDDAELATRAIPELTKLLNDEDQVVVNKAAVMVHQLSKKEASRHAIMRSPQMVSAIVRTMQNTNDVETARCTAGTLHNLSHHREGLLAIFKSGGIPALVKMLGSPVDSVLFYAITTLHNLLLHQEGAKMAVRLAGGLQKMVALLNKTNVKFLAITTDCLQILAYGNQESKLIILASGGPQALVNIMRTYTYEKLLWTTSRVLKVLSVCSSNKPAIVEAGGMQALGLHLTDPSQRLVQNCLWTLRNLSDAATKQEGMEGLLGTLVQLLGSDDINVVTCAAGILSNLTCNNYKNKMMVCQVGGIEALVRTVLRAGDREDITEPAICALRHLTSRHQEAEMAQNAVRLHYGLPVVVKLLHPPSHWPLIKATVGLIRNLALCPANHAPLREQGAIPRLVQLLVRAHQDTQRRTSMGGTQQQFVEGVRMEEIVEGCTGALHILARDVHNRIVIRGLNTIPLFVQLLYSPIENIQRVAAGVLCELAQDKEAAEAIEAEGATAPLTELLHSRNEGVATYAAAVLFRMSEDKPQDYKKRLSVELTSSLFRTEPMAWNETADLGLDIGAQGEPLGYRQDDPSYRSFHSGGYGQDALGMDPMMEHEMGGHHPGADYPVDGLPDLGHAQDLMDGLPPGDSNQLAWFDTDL

T2: Bcat-Halo (UniProt P35222 1-781, HaloTag NanoBRET 618 Ligand bound in the assay)
T2 construct: Expressed by transfection in HEK293 cells; also called beta-catenin HaloTag NanoBRET construct; not shown: HaloTag
T2 sequence (looked up): T1 sequence

T3: B-cat-Halo (beta-catenin HaloTag construct expressed in HEK293 cells) (UniProt P35222 1-781)
T3 sequence (looked up): T1 sequence

B1: I-601 (peptide)
peptide: XDIXDEAAFQXFXQ
modifications: N-terminal Bnc cap; PL3 (pos 1), B5 (pos 4), S8 (pos 11) stapled (PL3-B5 and B5-S8, olefin metathesis); BztA (pos 13); C-terminal NH2
notes: Stapled peptide; also called Bnc-PL3-Asp-Ile-B5-Asp-Glu-Ala-Ala-Phe-Gln-S8-Phe-BztA-Gln-NH2
B2: I-613 (peptide)
peptide: XDIXDRAAFQXFXQ
modifications: not fully specified; N-terminal Ac; PL3 (pos 1), B5 (pos 4), S8 (pos 11) stapled (PL3-B5 and B5-S8); BztA (pos 13); C-terminal NH2
notes: Stapled peptide; also called Ac-PL3-Asp-Ile-B5-Asp-Arg-Ala-Ala-Phe-Gln-S8-Phe-BztA-Gln-NH2
B3: I-614 (peptide)
peptide: XDIXDRAAFQXFXQ
modifications: not fully specified; N-terminal Ac; PL3 (pos 1), B5 (pos 4), S8 (pos 11) stapled (PL3-B5 and B5-S8); BztA (pos 13); C-terminal NH2
notes: as for B2
B4: I-603 (peptide)
peptide: Ac-[αAllylPro]DI[B5]DQAAFQ[S8]F[Bta]Q-NH2
modifications: staple 1-4, 4-11
notes: Stapled peptide; also called Ac-PL3-Asp-Ile-B5-Asp-Gln-Ala-Ala-Phe-Gln-S8-Phe-BztA-Gln-NH2
B5: I-618 (peptide)
peptide: XDLXDEAAFTXFXH
modifications: not fully specified; N-terminal Ac; PL3 (pos 1), B5 (pos 4), S8 (pos 11) stapled (PL3-B5 and B5-S8); BztA (pos 13); C-terminal NH2
notes: Stapled peptide; also called Ac-PL3-Asp-Leu-B5-Asp-Glu-Ala-Ala-Phe-Thr-S8-Phe-BztA-His-NH2
B6: I-617 (peptide)
peptide: XDLXDEAAFTXFXH
modifications: not fully specified; N-terminal Ac; PL3 (pos 1), B5 (pos 4), S8 (pos 11) stapled (PL3-B5 and B5-S8); BztA (pos 13); C-terminal NH2
notes: as for B5
B7: I-622 (peptide)
peptide: XDLXDEAAFTXFXQ
modifications: not fully specified; N-terminal Ac; PL3 (pos 1), B5 (pos 4), S8 (pos 11) stapled (PL3-B5 and B5-S8); BztA (pos 13); C-terminal NH2
notes: Stapled peptide; also called Ac-PL3-Asp-Leu-B5-Asp-Glu-Ala-Ala-Phe-Thr-S8-Phe-BztA-Gln-NH2
B8: I-623 (peptide)
peptide: XDLXDEAAFTXFXQ
modifications: not fully specified; N-terminal Ac; PL3 (pos 1), B5 (pos 4), S8 (pos 11) stapled (PL3-B5 and B5-S8); BztA (pos 13); C-terminal NH2
notes: as for B7
B9: I-602 (peptide)
peptide: XDIXDEAAFQXFXQ
modifications: N-terminal 2PyPrpc cap; PL3 (pos 1), B5 (pos 4), S8 (pos 11) stapled (PL3-B5 and B5-S8); BztA (pos 13); C-terminal NH2
notes: Stapled peptide; also called 2PyPrpc-PL3-Asp-Ile-B5-Asp-Glu-Ala-Ala-Phe-Gln-S8-Phe-BztA-Gln-NH2
B10: I-1141 (peptide)
peptide: Ac-[αAllylPro]DF[B5(24)]DDAAFS[PyrS2″][Phe(2-Cl)][Bta]T-NH2
modifications: staple 1-4, 4-11
notes: Stapled (stitched) peptide composition; olefin isomer not specified

target: T1, full-length beta-Catenin (Uniprot ID …); assay: fluorescence polarization competition; full-length beta-catenin with 5FAM-TCF4(10-53) probe as competitor
Method in brief: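 Fluorescence polarization was read in duplicate after the plate sat 60 minutes at 20° C. shielded from light. Values come from fitting to a 1:1 binding model with hill slope.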

First: B1
Second: B2
The IC50 of the first is 3.9-fold lower: 0.419 µM for the first, 1.63 µM for the second.

Going from B3 to B4, the IC50 falls from 1.14 µM to 0.392 µM (2.9-fold). The second is the more potent here.

Going from B5 to B6, the IC50 rises from 0.135 µM to 0.253 µM (1.9-fold).

Compared with B7, B8 is 2.2-fold lower in IC50: 0.23 µM for the first, 0.103 µM for the second.

Binder B9 has an IC50 of 3.15 µM.

target: T2, Bcat-Halo; assay: NanoBRET Abs IC50 in HEK293 cells; competitor TCF4-Luc on Bcat-Halo

For B10, the IC50 was 27.3 µM.

target: T3, B-cat-Halo (beta-catenin HaloTag …); assay: cell-based or functional assay

Ac-[αAllylPro]D[Cha][B5″]DDAAFT[PyrS2(3)][Phe(F5)][Bta]S-NH2 (staple 1-4, 4-11) [I-1187] and Ac-[αAllylPro]D[tBuAla][B5″]DDAAFL[PyrS2(3)][Phe(F5)][Bta]Q-NH2 (staple 1-4, 4-11) [I-1185] are within 1.5-fold of each other in “NanoBRET Abs IC50” value: 28.6 µM for the first, 26.9 µM for the second.

Compared with Ac-[αAllylPro]D[tBuAla][B5″]DDAAFL[S8][3Thi][Bta]Q-NH2 (staple 1-4, 4-11) [I-1188], Ac-[αAllylPro]D[tBuAla][B5″]DDAAFL[S8][3Thi][Bta]H-NH2 (staple 1-4, 4-11) [I-1195] is 2.2-fold higher in “NanoBRET Abs IC50” value: 7.2 µM for the first, 16.2 µM for the second.

Compared with Ac-[αAllylPro]D[tBuAla][B5″]DDAA[Phe(2-CN)]L[PyrS2(3)][3Thi][Bta]Q-NH2 (staple 1-4, 4-11) [I-1200], Ac-[αAllylPro]D[tBuAla][B5″]DDAA[Phe(3-CN)]L[PyrS2(3)][3Thi][Bta]Q-NH2 (staple 1-4, 4-11) [I-1201] is lower in “NanoBRET Abs IC50” value: over 20 µM for the first, 19.6 µM for the second.

First: Ac-[αAllylPro]D[tBuAla][B5″]DDAA[Phe(4-CN)]L[PyrS2(3)][3Thi][Bta]Q-NH2 (staple 1-4, 4-11) [I-1202]
Second: Ac-PD[tBuAla][R5]DDAAFL[PyrS2(3)][3Thi][Bta]Q-NH2 (staple 4-11) [I-1181]
The “NanoBRET Abs IC50” value of the first is lower: 16.3 µM for the first, over 20 µM for the second.
